The results in this text go back to US9592281B2, “Method for inducing immunity with a peptide fragment from human CAPRIN-1” (Toray Industries, Inc., priority 2008, dated 2017).

Residues, ends and D or L forms follow the SMILES beside them.

The test system of data set [1] is HLA-A24+ JTK-LCL cells.
Experimental: Chromium-51 was incorporated into the HLA-A24+ JTK-LCL cells expressing the human CAPRIN-1 polypeptide, HLA-A24+ and peptide epitope-reactive CD8+ T cells were added, culture was conducted, and the amount of chromium-51 in the culture supernatant released from the disrupted cells was measured.
(§1) The cytotoxic activity used herein means the cytotoxic activity of the CD8+ T cells against the U-87MG cells or the JTK-LCL cells (i.e., target cells) determined according to the following equation*. Cytotoxic activity (%)=amount of chromium-51 released from U-87MG or JTK-LCL cell upon addition of CD8+ T cell/amount of chromium-51 released from target cell upon addition of 1N hydrochloric acid×100 Equation*
Data set [2] relates to U-87MG human glioma cells.
Experimental: 10^6 cells of U-87MG human glioma cells (purchased from ATCC), which were verified to express the human CAPRIN-1 polypeptide, were collected in a 50-ml centrifuge tube, 100 μCi chromium-51 was added, and incubation was carried out at 37° C. for 2 hours. Thereafter, the cells were washed 3 times with RPMI medium (Gibco) containing 10% fetal bovine serum (hereafter referred to as “FBS,” Gibco) and added to a 96-well V-bottom plate in amounts of 10^3 cells/well. Further, 5×10^4 HLA-A0201+ and peptide epitope-reactive CD8+ T cells stimulated with the peptides suspended in RPMI medium containing 10% FBS were added, and culture was conducted at 37° C. in 5% CO2 for 4 hours. After the culture, the amount of chromium-51 in the culture supernatant released from the disrupted tumor cells was measured to determine the cytotoxic activity of the peptide-stimulated CD8+ T cells.
as §1
Data set [3] deals with tumor of cancer-bearing dog (breast cancer). In words: Antitumor evaluation of recombinant protein in cancer-bearing dog. The class given is in vivo. To be noted: dog with breast cancer; for tumor size: tumor about 86 mm^3 at administration, 100 μg with Freund's incomplete adjuvant, 3 times to regional lymph node. On the procedure:
A cancer-bearing dog (breast cancer) having a tumor on the epidermis was subjected to evaluation of the antitumor effects of the recombinant protein purified above.
The recombinant polypeptide having the amino acid sequence shown by SEQ ID NO: 6 purified in the above-described manner (100 μg, 0.5 ml) was mixed with the equivalent amount of the Freund's incomplete adjuvant (Wako Pure Chemical Industries, Ltd.) to prepare a cancer therapeutic agent. The resulting agent was administered 3 times in total to the regional lymph node in the vicinity of the tumor, as an initial-administration, and 3 days and 7 days thereafter.
Also, 100 μg of canine interleukin 12 was administered together with the agent subcutaneously.
Further, a mixture of 0.5 ml of the recombinant polypeptide having the amino acid sequence shown by SEQ ID NO: 8 and 0.5 ml of the Freund's incomplete adjuvant was administered to another dog having breast cancer 3 times in total in the same manner as described above. Also, 100 μg of canine interleukin 12 was administered together with the agent subcutaneously.

For data set [4], the system named is canine peripheral blood mononuclear cells. In words: ELISpot assay of IFNγ using peripheral blood mononuclear cells of administered dogs. The class given is cell-based, dog. To be noted: 5×10^5 cells/well, restimulated with the administered polypeptide 24 hours, no spots before administration.
Experimental: 70% ethanol was added to a 96-well plate (MultiScreen-IP, MAIPS4510, Millipore) in amounts of 100 μl/well, the plate was allowed to stand for 5 minutes, ethanol was aspirated off, the plate was washed with sterilized water, 200 mM sodium bicarbonate (pH 8.2) was added in amounts of 300 μl/well, the plate was allowed to stand for 5 minutes, sodium bicarbonate was aspirated off, and the plate was washed. Subsequently, the anti-canine interferon γ monoclonal antibody (clone142529, MAB781, R&D) added to 200 mM sodium bicarbonate was added to the plate in amounts of 0.5 μg/well, incubation was carried out at 37° C. overnight, and the primary antibody was solid-phased. After the primary antibody in the solution was aspirated off, a blocking solution (1% BSA-5% sucrose-200 mM sodium bicarbonate, pH 8.2) was added in amounts of 300 μl/well, and incubation was carried out at 4° C. overnight to block the plate. After the blocking solution was aspirated off, RPMI medium containing 10% fetal bovine serum (Invitrogen) was added in amounts of 300 μl/well, the plate was allowed to stand for 5 minutes, and the medium was aspirated off. Thereafter, canine peripheral blood mononuclear cells suspended in RPMI medium containing 10% fetal bovine serum were added to the plate in amounts of 5×10^5 cells/well, the dog-derived polypeptide or human-derived polypeptide used for administration were added thereto in amounts of 10 μl/well, and culture was conducted at 37° C. in 5% CO2 for 24 hours to produce interferon γ from immunocytes among peripheral blood mononuclear cells. After culture was conducted, the medium was removed, and wells were washed 6 times with a wash (0.1% Tween 20-200 mM sodium bicarbonate, pH 8.2). The rabbit anti-dog polyclonal antibodies diluted 1,000-fold with the blocking solution were added to the plate in amounts of 100 μl/well and then incubated at 4° C. overnight. After the wells were washed 3 times with the wash, the HRP-labeled anti-rabbit antibodies diluted 1,000-fold with the blocking solution were added to the plate in amounts of 100 μl/well, and the reaction was allowed to proceed at 37° C. for 2 hours. After the wells were washed 3 times with the wash, a color was developed with the aid of a Konica immunostain (Konica), and the wells was washed with water to terminate the reaction. After the reaction was terminated, the membrane was dried, and the number of the developed spots was counted using the KS Elispot (Carl Zeiss).
The test system of data set [5] is human breast cancer cell line, MDA-MB-231V. In words: Flow cytometry reactivity of monoclonal antibodies with breast cancer cell surface. Format: cell-based. To be noted: 10^6 MDA-MB-231V cells; control with medium instead of antibody. On the procedure: Subsequently, monoclonal antibodies having reactivity with the surfaces of the breast cancer cells expressing CAPRIN-1 were selected from among the above monoclonal antibodies. Specifically, 10^6 cells of human breast cancer cell line, MDA-MB-231V, were centrifuged in a 1.5-ml microcentrifuge tube, 100 μl of the hybridoma supernatants prepared above was added thereto, and the resultants were allowed to stand on ice for 1 hour. After the plate was washed with PBS, the FITC-labeled goat anti-mouse IgG antibody (Invitrogen) diluted 500-fold with PBS containing 0.1% fetal bovine serum was added, and the plate was allowed to stand on ice for 1 hour. After the plate was washed with PBS, fluorescence intensity was measured using the FACSCalibur (Becton Dickinson). Separately, as a control, the same procedure was carried out except for adding a medium instead of the antibodies. […] The sequence of the heavy-chain variable region of one of such monoclonal antibodies is shown by SEQ ID NO: 78 and that of the light-chain variable region thereof is shown by SEQ ID NO: 79.

The mark [6] stands for this setting: 10 days after the administration.
Setting [7] is: 30 days after the administration.

`CSCC[C@H](NC(=O)[C@@H](NC(=O)[C@H](CCC(N)=O)NC(=O)[C@H](CS)NC(=O)[C@H](CO)NC(=O)[C@H](Cc1ccc(O)cc1)NC(=O)[C@H](CO)NC(=O)[C@@H](N)CCCNC(=N)N)C(C)C)C(=O)N[C@@H](Cc1c[nH]cn1)C(=O)N[C@@H](CCC(=O)O)C(=O)O` [SEQ ID NO: 77] (H-RSYSCQVMHE-OH): in data set [1], the “cytotoxic activity of peptide-stimulated CD8+ T cells against JTK-LCL cells” value is “did not exhibit cytotoxicity”. Further, the “cytotoxic activity of peptide-stimulated CD8+ T cells against U-87MG cells” value in data set [2] is given as “did not show cytotoxic activity”.

B1: SEQ ID NO: 6: recombinant polypeptide having the amino acid sequence shown by SEQ ID NO: 6 (canine CAPRIN-1), expressed in E. coli (protein, listed as Canis familiaris)
chain: MALSQDIQKTIKKTARREQLMREEAEQKRLKTVLELQYVLDKLGDDEVRTDLKQGLNGVPILSEEELSLLDEFYKLADPERDMSLRLNEQYEHASIHLWDLLEGKEKSVCGTTYKALKEIVERVFQSNYFDSTHNHQNGLCEEEEAASAPTVEDQVAEAEPEPAEEYTEQSEVESTEYVNRQFMAETQFSSGEKEQVDEWTVETVEVVNSLQQQPQAASPSVPEPHSLTPVAQADPLVRRQRVQDLMAQMQGPYNFIQDSMLDFENQTLDPAIVSAQPMNPTQNMDMPQLVCPPVHSESRLAQPNQVPVQPEATQVPLVSSTSEGYTASQPLYQPSHATEQRPQKEPIDQIQATISLNTDQTTASSSLPAASQPQVFQAGTSKPLHSSGINVNAAPFQSMQTVFNMNAPVPPVNEPETLKQQNQYQASYNQSFSSQPHQVEQTEGCRK
In the case of B1, the tumor size in data set [3] (10 days after the initial administration) is recorded as 55 mm^3; in data set [3] (20 days after the initial administration), 30 mm^3; in data set [3] (30 days after the initial administration), 20 mm^3. Also, the “number of IFNγ spots detected in peripheral blood mononuclear cells” value was 13 spots in data set [4] (setting [6]) and 82 spots in data set [4] (setting [7]).

B2: SEQ ID NO: 8: recombinant polypeptide having the amino acid sequence shown by SEQ ID NO: 8 (canine CAPRIN-1), expressed in E. coli (protein, listed as Canis familiaris)
chain: MPSATSLSGSGSKSSGPPPPSGSSGSEAAAAAGAAGAAGAGAAAPASQHPATGTGAVQTEAMKQILGVIDKKLRNLEKKKGKLDDYQERMNKGERLNQDQLDAVSKYQEVTNNLEFAKELQRSFMALSQDIQKTIKKTARREQLMREEAEQKRLKTVLELQYVLDKLGDDEVRTDLKQGLNGVPILSEEELSLLDEFYKLADPERDMSLRLNEQYEHASIHLWDLLEGKEKSVCGTTYKALKEIVERVFQSNYFDSTHNHQNGLCEEEEAASAPTVEDQVAEAEPEPAEEYTEQSEVESTEYVNRQFMAETQFSSGEKEQVDEWTVETVEVVNSLQQQPQAASPSVPEPHSLTPVAQADPLVRRQRVQDLMAQMQGPYNFIQDSMLDFENQTLDPAIVSAQPMNPTQNMDMPQLVCPPVHSESRLAQPNQVPVQPEATQVPLVSSTSEGYTASQPLYQPSHATEQRPQKEPIDQIQATISLNTDQTTASSSLPAASQPQVFQAGTSKPLHSSGINVNAAPFQSMQTVFNMNAPVPPVNEPETLKQQNQYQASYNQSFSSQPHQVEQTDLQQEQLQTVVGTYHGSQDQPHQVTGNHQQPPQQNTGFPRSSQPYYNSRGVSRGGSRGARGLMNGYRGPANGFRGGYDGYRPSFSNTPNSGYTQSQFSAPRDYSGYQRDGYQQNFKRGSGQSGPRGAPRGRGGPPRPNRGMPQMNTQQVN
On to B2, for which, in data set [3] (with Freund's incomplete adjuvant, 3 times, plus 100 μg canine interleukin 12 subcutaneously, tumor at administration about 123 mm^3 (SEQ ID NO: 2), about 96 mm^3 (SEQ ID NO: 8)), the “tumor completely regressed, time after the initial administration” value came out at 27 days. Also, the “number of IFNγ spots detected in peripheral blood mononuclear cells” value in data set [4] (setting [6]) is 32 spots; in data set [4] (setting [7]) it was 117 spots.

B3: monoclonal antibody against CAPRIN-1 having the heavy-chain variable region of SEQ ID NO: 78 and the light-chain variable region of SEQ ID NO: 79: mouse monoclonal antibody against human CAPRIN-1 … (antibody, listed as Mus musculus, V domains shown)
VH: PRASLGVSETLLCTSGFTFTDYYMSWVRQPPGKALEWLGFIRNKANGYTTEYSASVKGRFTISRDNSQSILYLQMNTLRAEDSATYYCARANWAFDYWGQGTTVTVSSK
VL: SGDRVSLSCRASQSISNYLHWYQQKSHESPRLLIKYASQSISGIPSRFSGSGSGTDFTLSINSVETEDFGMYFCQQSNSWPYTFGGGTKLEIKQ
notes: mouse monoclonal antibody against human CAPRIN-1 reacting with breast cancer cell surfaces
With B3, the “reactivity with breast cancer cell surface (fluorescence intensity, FACS)” value in data set [5] was “reacts with the cancer cell surface”.
